Assay results as given in patent US20040110684A1.

Legend:
[1] = molecular target: wild-type eNOS (construct expressed in COS cells) (UniProt P29474); test: cell-based or functional assay
[2] = molecular target: endothelial nitric oxide synthase (eNOS), endogenous, human umbilical vein endothelial cells (HUVECs) (human) (UniProt P29474); test: eNOS IP, phospho-Ser473-Akt immunoblot, HUVEC lysates
[3] = molecular target: S1177A eNOS mutant (construct expressed in COS cells) (UniProt P29474); test: cell-based or functional assay
Sequence of S1177A eNOS mutant (construct expressed in COS cells) (P29474 2-1203 S1177A limits assumed): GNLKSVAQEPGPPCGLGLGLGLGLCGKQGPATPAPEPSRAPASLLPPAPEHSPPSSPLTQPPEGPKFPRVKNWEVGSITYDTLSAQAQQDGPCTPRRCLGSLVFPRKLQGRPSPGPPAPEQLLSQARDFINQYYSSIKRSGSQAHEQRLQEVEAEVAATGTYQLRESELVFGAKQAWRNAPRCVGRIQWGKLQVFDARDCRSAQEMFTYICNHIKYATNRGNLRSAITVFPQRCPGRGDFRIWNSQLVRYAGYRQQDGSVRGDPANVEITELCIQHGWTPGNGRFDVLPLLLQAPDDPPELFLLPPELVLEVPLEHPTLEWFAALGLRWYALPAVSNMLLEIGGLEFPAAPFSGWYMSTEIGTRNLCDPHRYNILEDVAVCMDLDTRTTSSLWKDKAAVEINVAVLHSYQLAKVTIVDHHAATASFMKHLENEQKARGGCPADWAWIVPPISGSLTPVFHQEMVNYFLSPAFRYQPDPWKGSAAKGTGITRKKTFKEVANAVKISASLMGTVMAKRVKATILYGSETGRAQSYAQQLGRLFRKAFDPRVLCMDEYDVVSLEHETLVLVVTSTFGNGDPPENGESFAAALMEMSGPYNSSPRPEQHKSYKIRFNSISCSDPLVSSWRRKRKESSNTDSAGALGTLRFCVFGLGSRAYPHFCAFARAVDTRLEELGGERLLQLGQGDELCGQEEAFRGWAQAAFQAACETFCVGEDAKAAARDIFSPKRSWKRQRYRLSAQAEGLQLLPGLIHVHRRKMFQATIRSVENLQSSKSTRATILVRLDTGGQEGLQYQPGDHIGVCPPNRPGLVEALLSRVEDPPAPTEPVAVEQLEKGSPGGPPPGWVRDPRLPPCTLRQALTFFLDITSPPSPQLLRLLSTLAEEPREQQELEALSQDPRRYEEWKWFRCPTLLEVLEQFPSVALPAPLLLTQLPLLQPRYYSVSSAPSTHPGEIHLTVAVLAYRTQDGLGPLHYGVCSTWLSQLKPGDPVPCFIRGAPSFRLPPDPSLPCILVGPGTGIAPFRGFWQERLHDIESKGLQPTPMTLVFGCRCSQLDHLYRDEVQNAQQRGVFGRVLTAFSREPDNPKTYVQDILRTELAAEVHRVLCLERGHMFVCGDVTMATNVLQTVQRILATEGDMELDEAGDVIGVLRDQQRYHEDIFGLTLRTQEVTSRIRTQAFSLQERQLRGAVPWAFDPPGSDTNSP

Sequence of wild-type eNOS (construct expressed in COS cells) (P29474 2-1203 limits assumed): as the sequence (P29474 2-1203 S1177A limits assumed) above, with A1176S counted along it
Sequence of endothelial nitric oxide synthase (eNOS), endogenous, human umbilical vein endothelial cells (HUVECs) (human) (P29474 2-1203 limits assumed): as the sequence (P29474 2-1203 S1177A limits assumed) above, with A1176S counted along it

| Substance | increase in nitrite production, co-transfected COS cells [1] [%] | increase over basal level of nitrite production, COS cells co-transfected with WT-eNOS, active Akt and also recombinant hsp90 [1] [%] | fold increase of phospho-Akt enrichment in the eNOS IP, statin plus recombinant hsp90 vs statin alone [2] [fold] | increase in nitrite production, co-transfected COS cells [3] [%] |
| --- | --- | --- | --- | --- |
| Myc-tagged active Akt (T308D/S473D) (from UniProt P31749 1-480) (enzyme) | 64 | 152 | – | – |
| phospho-Ser473-Akt, endogenous, human umbilical vein endothelial cells (HUVECs) (from UniProt P31749 1-480) (enzyme) | – | – | > 3 | – |
| recombinant hsp90 (expressed from hsp90 cDNA, gift of Dr W. C. Sessa) | 49 | – | – | 40 |
